Source: paper PMC8615399, “Novel Structures of Type 1 Glyceraldehyde-3-phosphate Dehydrogenase from Escherichia coli Provide New Insights into the Mechanism of Generation of 1,3-Bisphosphoglyceric Acid” (Biomolecules, 2021)
Residue numbers refer to the chain shown, from its start. Numbers in names are those of the source.

B1: glyceraldehyde-3-phosphate dehydrogenase type 1 from Escherichia coli, wild type (enzyme, UniProt P0A9B2 1-331, looked up)
chain: MTIKVGINGFGRIGRIVFRAAQKRSDIEIVAINDLLDADYMAYMLKYDSTHGRFDGTVEVKDGHLIVNGKKIRVTAERDPANLKWDEVGVDVVAEATGLFLTDETARKHITAGAKKVVMTGPSKDNTPMFVKGANFDKYAGQDIVSNASCTTNCLAPLAKVINDNFGIIEGLMTTVHATTATQKTVDGPSHKDWRGGRGASQNIIPSSTGAAKAVGKVLPELNGKLTGMAFRVPTPNVSVVDLTVRLEKAATYEQIKAAVKAAAEGEMKGVLGYTEDDVVSTDFNGEVCTSVFDAKAGIALNDNFVKLVSWYDNETGYSNKVLDLIAHISK
notes: glyceraldehyde-3-phosphate dehydrogenase type 1 (EcGAPDH1), Escherichia coli; EC 1.2.1.12; also called EcGAPDH1; WT; source: purified as previously described [24]
B2: EcGAPDH1 mutant C150S (enzyme, Escherichia coli, UniProt P0A9B2 1-331, looked up)
chain: B1 chain with C150S
notes: glyceraldehyde-3-phosphate dehydrogenase type 1 (EcGAPDH1), Escherichia coli; Made from the wild-type vector by overlap extension PCR; source: purified (Ni-NTA, size-exclusion chromatography)
B3: EcGAPDH1 mutant C150A (enzyme, Escherichia coli, UniProt P0A9B2 1-331, looked up)
chain: B1 chain with C150A
notes: as for B2
B4: EcGAPDH1 mutant H177A (enzyme, Escherichia coli, UniProt P0A9B2 1-331, looked up)
chain: B1 chain with H177A
notes: as for B2
B5: EcGAPDH1 double mutant C150A+H177A (enzyme, Escherichia coli, UniProt P0A9B2 1-331, looked up)
chain: B1 chain with C150A, H177A
notes: glyceraldehyde-3-phosphate dehydrogenase type 1 (EcGAPDH1), Escherichia coli; source: purified (Ni-NTA, size-exclusion chromatography)

Target: the molecule itself
Assay: crystal structure; hanging-drop vapor diffusion at 20 °C, protein 30 mg/mL; space group P4(1)2(1)2; complexes with NAD and phosphate, G3P or BPG; four subunits (O, P, Q, R) in each structure

How did the “stoichiometry N” value turn out when B1 was run?
The value was 4.

With B2 as the protein, how does the “stoichiometry N” value read?
The value was 4.

B3 was tested. Which “stoichiometry N” value did it give?
Its value is 4.

B4 was tested. Which “stoichiometry N” value did it give?
Its value is 4.

For B5, which “stoichiometry N” value is on record?
Its value is 4.
